The values that follow come from patent publication US20240025959A1 (UNIVERSITY OF SOUTHERN CALIFORNIA, published 2024).

For one assay, the target named is T1, ATG13 (human, UniProt O75143 1-517, limits assumed).
T1 sequence (looked up): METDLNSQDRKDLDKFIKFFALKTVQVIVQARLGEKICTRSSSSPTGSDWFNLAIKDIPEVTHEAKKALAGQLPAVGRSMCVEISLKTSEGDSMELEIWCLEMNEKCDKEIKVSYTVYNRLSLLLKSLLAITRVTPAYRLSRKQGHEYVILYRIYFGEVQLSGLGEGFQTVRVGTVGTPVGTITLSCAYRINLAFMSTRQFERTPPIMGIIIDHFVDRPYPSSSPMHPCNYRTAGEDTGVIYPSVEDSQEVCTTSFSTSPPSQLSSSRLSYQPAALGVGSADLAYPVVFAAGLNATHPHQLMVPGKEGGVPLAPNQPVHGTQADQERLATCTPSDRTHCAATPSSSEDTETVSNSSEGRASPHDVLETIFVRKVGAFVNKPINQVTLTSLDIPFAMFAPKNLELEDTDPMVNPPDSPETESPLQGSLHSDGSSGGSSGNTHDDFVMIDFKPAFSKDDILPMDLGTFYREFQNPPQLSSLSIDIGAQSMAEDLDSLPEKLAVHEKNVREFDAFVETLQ
The experiment in a line: co-IP and immunoblot in 293T cells, as summed up in the discussion.

For the next assay, the target named is T2, FIP200 (human, UniProt Q8TDY2 1-1594).
T2 construct: also called Flag-FIP200; hFIP200
Described as above.

The next assay has as its target T3, ATG9A (human) (human, UniProt Q7Z3C6 1-839).
T3 construct: Transmembrane protein; co-IP from RIPA lysates; Tagged and endogenous human forms kept under one id; also called Flag-ATG9A; HA-ATG9A
T3 sequence (looked up): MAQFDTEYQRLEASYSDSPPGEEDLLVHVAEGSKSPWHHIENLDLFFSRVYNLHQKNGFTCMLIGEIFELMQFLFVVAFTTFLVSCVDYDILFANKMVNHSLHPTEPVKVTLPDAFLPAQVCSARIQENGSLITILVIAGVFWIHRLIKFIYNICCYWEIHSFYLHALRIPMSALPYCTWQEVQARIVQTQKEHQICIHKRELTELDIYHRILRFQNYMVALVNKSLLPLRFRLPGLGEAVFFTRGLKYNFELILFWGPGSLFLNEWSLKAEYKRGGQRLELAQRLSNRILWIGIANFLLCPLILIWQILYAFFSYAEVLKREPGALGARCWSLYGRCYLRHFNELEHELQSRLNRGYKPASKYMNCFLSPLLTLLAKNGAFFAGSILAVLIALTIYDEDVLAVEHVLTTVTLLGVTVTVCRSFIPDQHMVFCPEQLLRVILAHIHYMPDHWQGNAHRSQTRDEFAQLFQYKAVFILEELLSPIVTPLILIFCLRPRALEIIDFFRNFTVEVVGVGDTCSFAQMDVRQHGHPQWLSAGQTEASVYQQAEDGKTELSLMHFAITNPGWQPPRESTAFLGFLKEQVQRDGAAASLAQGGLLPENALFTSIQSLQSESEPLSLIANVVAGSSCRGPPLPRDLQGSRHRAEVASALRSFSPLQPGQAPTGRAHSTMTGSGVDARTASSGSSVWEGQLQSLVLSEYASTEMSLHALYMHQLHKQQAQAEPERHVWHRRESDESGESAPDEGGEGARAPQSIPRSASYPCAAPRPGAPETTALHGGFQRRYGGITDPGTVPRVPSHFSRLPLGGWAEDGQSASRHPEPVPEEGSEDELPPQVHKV
The experiment in a line: co-IP with anti-Flag beads and immunoblot; 293T cells co-transfected with HA-Beclin 2 and a Flag-tagged plasmid (FIG. 10A). (A western blot detects proteins with antibodies after separation by electrophoresis.)

Another assay has as its target T4, ULK1 (human, UniProt O75385 1-1050).
T4 construct: also called HA-ULK1
T4 sequence (looked up): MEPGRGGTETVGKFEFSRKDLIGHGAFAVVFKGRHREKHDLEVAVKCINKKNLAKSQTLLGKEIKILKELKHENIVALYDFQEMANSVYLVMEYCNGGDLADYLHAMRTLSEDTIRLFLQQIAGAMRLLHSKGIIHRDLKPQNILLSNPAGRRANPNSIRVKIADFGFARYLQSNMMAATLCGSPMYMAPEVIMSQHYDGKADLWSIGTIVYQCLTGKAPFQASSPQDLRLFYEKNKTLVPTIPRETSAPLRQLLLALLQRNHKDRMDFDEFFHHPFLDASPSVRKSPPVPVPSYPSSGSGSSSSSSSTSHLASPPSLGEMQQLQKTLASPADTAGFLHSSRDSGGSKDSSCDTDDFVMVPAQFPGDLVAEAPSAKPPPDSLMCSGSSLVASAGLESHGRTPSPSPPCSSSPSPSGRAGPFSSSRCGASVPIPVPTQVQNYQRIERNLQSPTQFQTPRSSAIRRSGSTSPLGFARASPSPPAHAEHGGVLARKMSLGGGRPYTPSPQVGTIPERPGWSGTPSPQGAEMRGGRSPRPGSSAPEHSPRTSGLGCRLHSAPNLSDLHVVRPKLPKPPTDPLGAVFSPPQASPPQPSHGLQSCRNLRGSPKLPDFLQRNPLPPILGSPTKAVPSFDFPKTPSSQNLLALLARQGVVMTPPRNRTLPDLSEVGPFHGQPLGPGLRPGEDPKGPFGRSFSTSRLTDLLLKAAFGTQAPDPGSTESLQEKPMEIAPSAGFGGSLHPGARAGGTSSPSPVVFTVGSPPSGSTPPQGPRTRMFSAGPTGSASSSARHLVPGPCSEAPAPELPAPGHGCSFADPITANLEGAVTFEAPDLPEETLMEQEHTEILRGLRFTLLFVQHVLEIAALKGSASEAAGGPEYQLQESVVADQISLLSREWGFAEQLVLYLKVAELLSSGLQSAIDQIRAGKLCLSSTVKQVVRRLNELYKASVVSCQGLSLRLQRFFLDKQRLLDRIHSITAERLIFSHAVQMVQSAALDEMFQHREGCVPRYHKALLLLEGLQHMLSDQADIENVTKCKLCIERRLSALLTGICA
Description: co-IP with anti-Flag beads and immunoblot; 293T cells co-transfected with Flag-Beclin 2 and HA-ULK1, complete or starvation medium (FIG. 10B).

Another assay deals with ERK5 (UniProt Q13164 1-816). Description: co-IP with anti-Flag beads and immunoblot; 293T cells co-transfected with Flag-Beclin 2 and an HA-tagged plasmid (FIG. 8A).
The target in the next assay is T5, WIPI1 (human, UniProt Q5MNZ9 1-446).
T5 sequence (looked up): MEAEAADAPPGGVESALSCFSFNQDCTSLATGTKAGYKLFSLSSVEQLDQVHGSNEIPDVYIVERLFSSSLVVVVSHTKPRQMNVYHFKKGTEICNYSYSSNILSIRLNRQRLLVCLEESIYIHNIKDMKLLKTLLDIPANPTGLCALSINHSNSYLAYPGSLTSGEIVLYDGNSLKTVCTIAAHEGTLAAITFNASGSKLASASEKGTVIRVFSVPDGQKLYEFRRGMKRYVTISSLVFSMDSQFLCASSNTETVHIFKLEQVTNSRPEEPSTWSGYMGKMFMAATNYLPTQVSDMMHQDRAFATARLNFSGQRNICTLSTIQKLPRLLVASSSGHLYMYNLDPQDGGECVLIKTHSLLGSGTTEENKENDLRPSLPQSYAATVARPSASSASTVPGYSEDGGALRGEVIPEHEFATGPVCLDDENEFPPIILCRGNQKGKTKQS
The experiment in a line: endogenous co-IP; 293T cell lysates immunoprecipitated with antibodies against each protein, immunoblot (FIG. 9D).

ERK5, sequence (Q13164 whole entry): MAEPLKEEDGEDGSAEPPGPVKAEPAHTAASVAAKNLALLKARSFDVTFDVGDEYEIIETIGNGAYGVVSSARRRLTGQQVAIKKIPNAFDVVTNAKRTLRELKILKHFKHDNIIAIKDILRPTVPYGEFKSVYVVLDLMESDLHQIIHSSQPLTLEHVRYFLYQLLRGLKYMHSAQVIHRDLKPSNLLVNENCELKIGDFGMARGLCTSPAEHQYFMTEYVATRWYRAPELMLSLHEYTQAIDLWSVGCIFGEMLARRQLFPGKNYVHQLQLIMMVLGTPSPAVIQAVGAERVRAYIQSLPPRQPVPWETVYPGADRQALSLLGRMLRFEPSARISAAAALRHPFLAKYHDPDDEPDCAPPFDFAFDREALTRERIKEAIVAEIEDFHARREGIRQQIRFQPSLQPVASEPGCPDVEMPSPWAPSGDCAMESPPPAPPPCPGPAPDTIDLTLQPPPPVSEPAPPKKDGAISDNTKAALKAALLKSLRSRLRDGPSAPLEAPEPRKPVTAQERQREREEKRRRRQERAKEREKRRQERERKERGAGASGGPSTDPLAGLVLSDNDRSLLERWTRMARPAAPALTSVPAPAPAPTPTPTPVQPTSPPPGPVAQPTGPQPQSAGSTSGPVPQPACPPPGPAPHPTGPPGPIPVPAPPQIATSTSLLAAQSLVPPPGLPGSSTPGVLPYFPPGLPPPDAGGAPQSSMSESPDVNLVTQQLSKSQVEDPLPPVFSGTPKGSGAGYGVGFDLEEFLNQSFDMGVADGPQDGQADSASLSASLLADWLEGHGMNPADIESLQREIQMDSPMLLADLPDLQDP
T2 sequence (Q8TDY2 whole entry): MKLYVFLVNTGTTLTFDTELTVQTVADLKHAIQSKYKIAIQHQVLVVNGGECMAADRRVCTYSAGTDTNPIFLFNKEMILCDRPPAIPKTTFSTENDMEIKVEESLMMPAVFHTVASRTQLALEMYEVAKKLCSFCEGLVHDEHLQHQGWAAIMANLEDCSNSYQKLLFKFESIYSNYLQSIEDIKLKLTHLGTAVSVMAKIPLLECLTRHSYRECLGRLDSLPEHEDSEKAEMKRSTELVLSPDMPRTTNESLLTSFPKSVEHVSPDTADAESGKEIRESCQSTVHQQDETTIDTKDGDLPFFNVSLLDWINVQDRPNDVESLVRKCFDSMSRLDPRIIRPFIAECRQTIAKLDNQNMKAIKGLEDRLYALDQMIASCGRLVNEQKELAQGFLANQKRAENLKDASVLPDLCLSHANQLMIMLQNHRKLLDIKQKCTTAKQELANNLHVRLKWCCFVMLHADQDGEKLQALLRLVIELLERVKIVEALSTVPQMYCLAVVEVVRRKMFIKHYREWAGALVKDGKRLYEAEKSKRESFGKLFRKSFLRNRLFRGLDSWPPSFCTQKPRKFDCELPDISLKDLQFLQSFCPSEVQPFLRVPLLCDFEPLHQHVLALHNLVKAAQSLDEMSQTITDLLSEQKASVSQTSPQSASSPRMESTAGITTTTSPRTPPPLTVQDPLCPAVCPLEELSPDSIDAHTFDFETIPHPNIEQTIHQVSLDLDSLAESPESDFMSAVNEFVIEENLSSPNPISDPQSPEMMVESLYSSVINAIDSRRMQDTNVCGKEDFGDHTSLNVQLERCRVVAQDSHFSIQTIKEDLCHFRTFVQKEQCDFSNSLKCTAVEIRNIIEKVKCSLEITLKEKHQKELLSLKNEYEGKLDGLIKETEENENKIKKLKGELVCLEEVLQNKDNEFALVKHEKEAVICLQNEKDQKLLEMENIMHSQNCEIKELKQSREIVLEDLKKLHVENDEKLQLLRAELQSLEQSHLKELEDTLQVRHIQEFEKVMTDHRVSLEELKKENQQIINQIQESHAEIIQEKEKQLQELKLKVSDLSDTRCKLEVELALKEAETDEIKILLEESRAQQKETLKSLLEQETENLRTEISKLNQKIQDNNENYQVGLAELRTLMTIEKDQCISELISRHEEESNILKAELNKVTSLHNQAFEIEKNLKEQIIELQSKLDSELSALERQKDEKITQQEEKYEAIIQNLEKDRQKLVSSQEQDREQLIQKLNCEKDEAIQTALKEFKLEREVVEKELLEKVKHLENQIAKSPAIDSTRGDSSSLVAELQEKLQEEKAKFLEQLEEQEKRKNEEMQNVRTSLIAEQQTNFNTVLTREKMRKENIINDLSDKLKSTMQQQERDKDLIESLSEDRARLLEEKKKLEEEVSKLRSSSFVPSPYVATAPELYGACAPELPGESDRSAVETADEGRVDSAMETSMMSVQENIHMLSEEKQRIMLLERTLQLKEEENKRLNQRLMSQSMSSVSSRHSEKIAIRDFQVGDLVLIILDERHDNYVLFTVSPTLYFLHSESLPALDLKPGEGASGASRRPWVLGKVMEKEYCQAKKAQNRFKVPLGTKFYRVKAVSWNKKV
Description for ERK5: (§1) The secondary antibody (Veriblot for IP detection reagent HRP) that only recognized native IgG but not denatured IgG was applied for immunoblotting of proteins in immunoprecipitates. For immunoprecipitation of Flag-tagged proteins, cell lysates were incubated with anti-Flag beads (Sigma) at 4° C. overnight. The beads were washed four times with RIPA lysis buffer, and immunoprecipitates were eluted with 2×SDS loading buffer. Immunoblotting was performed by loading the samples on SDS-PAGE gels, conducting electrophoresis, transferring the samples to PVDF membranes (Bio-Rad), and then incubating the membranes with the indicated antibodies. For all immunoblots, the LumiGLO Chemiluminescent Substrate System from KPL (Gaithersburg, MD) was used for protein detection.
Description for ULK1: as §1
Description for WIPI1: as §1

B1: Beclin 2 (human, full length) (other)
chain: MSSIRFLCQRCHQALKLSGSSESRSLPAAPAPTSGQAEPGDTREPGVTTREVTDAEEQQDGASSRSPPGDGSVSKGHANIFTLLGELGAMHMLSSIQKAAGDIFDIVSGQAVVDHPLCEECTDSLLEQLDIQLALTEADSQNYQRCLETGELATSEDEAAALRAELRDLELEEARLVQELEDVDRNNARAAADLQAAQAEAAELDQQERQHYRDYSALKRQQLELLDQLGNVENQLQYARVQRDRLKEINCFTATFEIWVEGPLGVINNFRLGRLPTVRVGWNEINTAWGQAALLLLTLANTIGLQFQRYRLIPCGNHSYLKSLTDDRTELPLFCYGGQDVFLNNKYDRAMVAFLDCMQQFKEEAEKGELGLSLPYGIQVETGLMEDVGGRGECYSIRTHLNTQELWTKALKFMLINFKWSLIWVASRYQK
notes: All tagged and endogenous human forms are kept under this one id; the form used is named under assay; also called BECN2; Flag-Beclin 2
Consider B1, for which the binding result with ATG13 was “no binding”; in the assay with FIP200, “no binding”; with ATG9A (human), “binds”; with ULK1, “binds”; with ERK5 it was “no binding”; with WIPI1, “binds”.
